# Source: publication PMC5818060 (Journal of Cell Science, 2018)
# Legend:
# CK1ε = assay: Mass spectrometric detection of DDX3X phosphorylation by CK1ε in vitro; type: biochemical, human; parameters: key to Probability of phosphorylation, T469 (symbol) / Probability of phosphorylation, S470 (symbol) / Probability of phosphorylation, S429 (symbol): –: no phosphorylation detected; details: phosphorylated by CK1ε in vitro; tryptic digestion, MS
# Description: (§1) Kinase assays were carried out essentially as described ([Cruciat et al., 2013]). For kinase assays, full-length DDX3X protein was expressed and purified from HEK293T cells as described for the ATPase assay. Deletion constructs were purified from E. coli. The eluted proteins were visualized using Coomassie Blue and the intensity of the protein bands was measured using ImageJ. The amounts used for kinase assays were estimated based on this staining. Where indicated, dsRNA was premixed with proteins at room temperature (RT) for 15 min before subjecting samples to radioactive kinase assays. The CK1 substrate peptide […] for the kinase assay and samples was analyzed using p81 phosphocellulose (Biomol) as described ([Zhai et al., 1992]). 0.3 µM CK1δ/ε-derived and control peptides were used ([Schacherl et al., 2015]). For mass spectrometric analyses DDX3X helicase core (His-DDX3X^168-582) as well as the C-terminal helicase domain (His-DDX3X^414-582) were in vitro phosphorylated by CK1ε. Also, reactions without addition of kinase were performed and analyzed in order to correct for false-positive results. Mass spectrometry data acquisition and analysis of trypsin-digested samples were performed at the Core Unit Mass Spectrometry and Proteomics (Ulm University) essentially as described in [Meng et al. (2016)].
# [1] = tested on: DDX3X-stimulated CK1ε (CK1εΔC); assay: In vitro radioactive kinase assay, DDX3X-stimulated CK1ε activity; type: biochemical, human; details: recombinant DDX3X, CK1 peptide substrate, radioactive; n=3
# Description: as §1
# [2] = tested on: Dvl phosphorylation in HEK293T cells; assay: Dvl phosphorylation shift on Western blot; type: cell-based, human; details: 50 or 100 ng Flag-DDX3X DNA
# [3] = tested on: endogenous CK1 / CK1 sensor in HEK293T cells; assay: CK1 FRET biosensor, microplate reader FRET/CFP ratio; type: cell-based, human; details: HEK293T, n=3
# Description: HEK293T cells were seeded at a density of 20,000 cells/well on 96-well black microplates (PS, μClear, clear bottom, chimney well, Greiner No. 655090). Transfection was performed as described above. Unless indicated otherwise, the respective cell populations were transfected with 50-100 ng CK1 FRET biosensor, 100 ng regulator (i.e. N-Flag DDX3X) and 1-10 ng kinase (i.e. N-Flag CK1ε). Either empty pCS2 N-Flag vector or luciferase were used to transfect the same amount of DNA in every well. Generally, the different samples were run in triplicate for each individual experiment. […]
# Where applicable, the small-molecule CK1 inhibitor D4476 (BioVision) was added to the cells 2-4 h prior to the analysis. […] Analysis was performed 48-60 h after transfection on an Infinite M1000 PRO microplate reader (Tecan) by exciting CFP with a wavelength of 433 nm and measuring the resulting emission at 460-600 nm in 2 nm increments. Fluorometric spectra were background subtracted with spectra recorded from wells with non-transfected cells. Resulting FRET/CFP ratios were calculated by dividing the intensity values at the respective peaks (478 nm for CFP, 528 nm for YFP) and analyzed essentially as described ([Fritz et al., 2013]). […]
# DDX3X = assay: ATPase assay of DDX3X; type: biochemical, human; details: full-length Flag-DDX3X, dsRNA 17-68 nM, 37°C, 40 min, 1 mM ATP; n=3
# Description: For the ATPase assay, Flag-tagged DDX3X full-length constructs were expressed in HEK293T cells. After purifying and eluting DDX3X from the beads, an aliquot of the eluates was resolved by SDS-PAGE in order to monitor the different DDX3X levels via western blotting and ImageJ. Based on this comparison, similar amounts of full-length DDX3X protein were used. Approximately 100 ng Flag-DDX3X protein and 10 ng His-CK1ε were used in a 60 μl reaction mix (reaction buffer: 20 mM Tris-HCl, pH 7.4, 200 mM NaCl, 0.5 mM DTT, 1 mM MgCl2, 1 mM ATP) with dsRNA (17 nM, 34 nM, 68 nM); the reaction was carried out at 37°C for 40 min. To phosphorylate DDX3X, 500 ng His-CK1εΔC or His-CK1εΔC^K38R were added in kinase buffer before eluting the DDX3X protein from the Sepharose magnetic Flag beads (Sigma). Incubation was performed at 37°C for 30 min. Then, beads were washed with 50 mM Tris-HCl, pH 7.5 and 500 mM NaCl before elution with Flag peptide. Termination of the helicase reaction was done with 10 μl of 50% TCA solution added to each reaction followed by centrifugation at 3000 g for 5 min at 4°C. Reaction mix was mixed with coloring solution (35 mM ammonium molybdate, 10 mM zinc acetate, 10% ascorbic acid, pH 5) in a 96-well plate before analysis using a spectrometer (wavelength 700 nm).
molecule,measurement,setting,value
"His-DDX3X^414-582: C-terminal helicase domain of DDX3X (aa 414–582), 6× histidine tag (protein, left off: His, end not stated, kept, C-terminal helicase domain of DDX3X (aa 414–582), 6× histidine tag) NITQKVVWVEESDKRSFLLDLLNATGKDSLTLVFVETKKGADSLEDFLYHEGYACTSIHGDRSQRDREEALHQFRSGKSPILVATAVAARGLDISNVKHVINFDLPSDIEEYVHRIGRTGRVGNLGLATSFFNERNINITKDLLDLLVEAKQEVPSWLENMAYEHHYKG","Probability of phosphorylation, S429 (symbol)",CK1ε,–
same,"Probability of phosphorylation, S470",CK1ε,100%
same,"Probability of phosphorylation, S543",CK1ε,92.7%
same,"Probability of phosphorylation, T469",CK1ε,100%
same,stimulation of CK1ε kinase activity in vitro,[1],sufficient to stimulate CK1ε∆C activity
"DDX3X: human DEAD box RNA helicase DDX3X (UniProt O00571) (protein, left off: Flag, N-terminal, kept) MSHVAVENALGLDQQFAGLDLNSSDNQSGGSTASKGRYIPPHLRNREATKGFYDKDSSGWSSSKDKDAYSSFGSRSDSRGKSSFFSDRGSGSRGRFDDRGRSDYDGIGSRGDRSGFGKFERGGNSRWCDKSDEDDWSKPLPPSERLEQELFSGGNTGINFEKYDDIPVEATGNNCPPHIESFSDVEMGEIIMGNIELTRYTRPTPVQKHAIPIIKEKRDLMACAQTGSGKTAAFLLPILSQIYSDGPGEALRAMKENGRYGRRKQYPISLVLAPTRELAVQIYEEARKFSYRSRVRPCVVYGGADIGQQIRDLERGCHLLVATPGRLVDMMERGKIGLDFCKYLVLDEADRMLDMGFEPQIRRIVEQDTMPPKGVRHTMMFSATFPKEIQMLARDFLDEYIFLAVGRVGSTSENITQKVVWVEESDKRSFLLDLLNATGKDSLTLVFVETKKGADSLEDFLYHEGYACTSIHGDRSQRDREEALHQFRSGKSPILVATAVAARGLDISNVKHVINFDLPSDIEEYVHRIGRTGRVGNLGLATSFFNERNINITKDLLDLLVEAKQEVPSWLENMAYEHHYKGSSRGRSKSSRFSGGFGARDYRQSSGASSSSFSSSRASSSRSGGGGHGSSRGFGGGGYGGFYNSDGYGGNYNSQGVDWWGN",stimulation of Dvl phosphorylation,[2],the wild-type protein alone could not
same,cooperation of DDX3X with co-expressed CK1 isoforms (FRET/CFP ratio),[3]; CK1 sensor with CK1 isoform,predominantly synergized with limiting amounts of CK1ε rather than with CK1δ and CK1α isoforms
same,effect of co-expressed DDX3X on FRET/CFP ratio of CK1 sensor,[3]; DDX3X without added CK1,not sufficient to significantly enhance endogenous CK1 activity
"CK1εΔC: CK1ε lacking the C-terminal 112 amino acids, constitutively active (protein, UniProt P49674 1-304, looked up, fragment, His tag) MELRVGNKYRLGRKIGSGSFGDIYLGANIASGEEVAIKLECVKTKHPQLHIESKFYKMMQGGVGIPSIKWCGAEGDYNVMVMELLGPSLEDLFNFCSRKFSLKTVLLLADQMISRIEYIHSKNFIHRDVKPDNFLMGLGKKGNLVYIIDFGLAKKYRDARTHQHIPYRENKNLTGTARYASINTHLGIEQSRRDDLESLGYVLMYFNLGSLPWQGLKAATKRQKYERISEKKMSTPIEVLCKGYPSEFSTYLNFCRSLRFDDKPDYSYLRQLFRNLFHRQGFSYDYVFDWNMLKFGAARNPEDV",effect of CK1ε protein on RNA-stimulated ATPase activity of DDX3X,DDX3X,much less stimulated by dsRNA
"CK1εΔC^K38R: kinase-dead mutant of CK1εΔC (protein, UniProt P49674 1-416, looked up, variant K38R del305-416, His tag) Casein kinase I isoform …: MELRVGNKYRLGRKIGSGSFGDIYLGANIASGEEVAIRLECVKTKHPQLHIESKFYKMMQGGVGIPSIKWCGAEGDYNVMVMELLGPSLEDLFNFCSRKFSLKTVLLLADQMISRIEYIHSKNFIHRDVKPDNFLMGLGKKGNLVYIIDFGLAKKYRDARTHQHIPYRENKNLTGTARYASINTHLGIEQSRRDDLESLGYVLMYFNLGSLPWQGLKAATKRQKYERISEKKMSTPIEVLCKGYPSEFSTYLNFCRSLRFDDKPDYSYLRQLFRNLFHRQGFSYDYVFDWNMLKFGAARNPEDV",effect of CK1ε protein on RNA-stimulated ATPase activity of DDX3X,DDX3X,still allowed dsRNA stimulation of the ATPase activity
"His-DDX3X^168-582: DDX3X helicase core (aa 168–582), 6× histidine tag (protein, UniProt O00571 168-582, looked up, fragment, N-terminal 6xHis tag, DDX3X helicase core (aa 168–582), 6× histidine tag) VEATGNNCPPHIESFSDVEMGEIIMGNIELTRYTRPTPVQKHAIPIIKEKRDLMACAQTGSGKTAAFLLPILSQIYSDGPGEALRAMKENGRYGRRKQYPISLVLAPTRELAVQIYEEARKFSYRSRVRPCVVYGGADIGQQIRDLERGCHLLVATPGRLVDMMERGKIGLDFCKYLVLDEADRMLDMGFEPQIRRIVEQDTMPPKGVRHTMMFSATFPKEIQMLARDFLDEYIFLAVGRVGSTSENITQKVVWVEESDKRSFLLDLLNATGKDSLTLVFVETKKGADSLEDFLYHEGYACTSIHGDRSQRDREEALHQFRSGKSPILVATAVAARGLDISNVKHVINFDLPSDIEEYVHRIGRTGRVGNLGLATSFFNERNINITKDLLDLLVEAKQEVPSWLENMAYEHHYKG","Probability of phosphorylation, S429",CK1ε,100%
same,"Probability of phosphorylation, S470 (symbol)",CK1ε,–
same,"Probability of phosphorylation, S543",CK1ε,88.7%
same,"Probability of phosphorylation, T469 (symbol)",CK1ε,–
